Assay in all cases: cryo-EM structure; human replisome: 150 nM CMG on fork DNA (60 nt or 15 nt 5′ flap) with 1.5-fold molar excess of AND-1, TIMELESS-TIPIN, CLASPIN and Pol α-primase; 25 mM HEPES-NaOH pH 7.6, 150 mM NaOAc, 0.5 mM TCEP, 500 μM AMP-PNP, 10 mM Mg(OAc)2, on ice; 10-30% glycerol gradient with glutaraldehyde and BS3 cross-linkers
Series [1] addresses T1, POLA2 (human Pol α accessory subunit) (human, UniProt Q14181 1-598).
T1 construct: POLA2, human; stood in the assay as a subunit of m18
T1 sequence: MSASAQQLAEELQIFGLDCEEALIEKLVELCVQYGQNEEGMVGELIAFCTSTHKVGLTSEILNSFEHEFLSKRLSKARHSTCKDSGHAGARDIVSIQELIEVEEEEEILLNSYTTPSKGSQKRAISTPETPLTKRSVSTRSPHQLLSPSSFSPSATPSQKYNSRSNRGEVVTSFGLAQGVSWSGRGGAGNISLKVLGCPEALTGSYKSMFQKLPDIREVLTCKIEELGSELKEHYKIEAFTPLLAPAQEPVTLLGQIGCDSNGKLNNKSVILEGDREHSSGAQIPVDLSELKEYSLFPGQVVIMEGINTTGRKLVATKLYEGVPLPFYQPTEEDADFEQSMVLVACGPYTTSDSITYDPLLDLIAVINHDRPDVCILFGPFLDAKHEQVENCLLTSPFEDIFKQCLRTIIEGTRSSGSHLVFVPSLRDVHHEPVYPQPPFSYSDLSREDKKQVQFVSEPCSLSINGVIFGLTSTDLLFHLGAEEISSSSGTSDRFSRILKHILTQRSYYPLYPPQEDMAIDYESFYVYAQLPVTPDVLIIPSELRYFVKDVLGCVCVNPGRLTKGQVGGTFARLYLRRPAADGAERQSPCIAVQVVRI
To be noted: both partners purified.

Series [2] deals with the molecule itself.
Series [3] deals with T2, human CMG (CDC45-MCM-GINS) replicative helicase (human, UniProt O75419 1-566; P49736 1-904; P25205 1-808; P33991 1-863; P33992 1-734; Q14566 …).
T2 construct: CDC45, human; MCM2, human; MCM3, human; MCM4, human; MCM5, human; MCM6, human; MCM7, human; PSF1, subunit of GINS, human; PSF2, subunit of GINS, human; PSF3, subunit of GINS, human; SLD5, subunit of GINS, human; the subunits are named in the methods for the MCM3-4A form, which was made as the wild type; copies: + + + + + + + + + +
To be noted: both partners purified.

For series [4], the target named is T3, POLA1 (human Pol α catalytic subunit) (human, UniProt P09884 1-1462).
T3 construct: POLA1, human; modelled residues 1279-1445 and 1448-1458 (CTD); stood in the assay as a subunit of m18; also called POLA1CTD; POLA1_(exo-cat)
T3 sequence: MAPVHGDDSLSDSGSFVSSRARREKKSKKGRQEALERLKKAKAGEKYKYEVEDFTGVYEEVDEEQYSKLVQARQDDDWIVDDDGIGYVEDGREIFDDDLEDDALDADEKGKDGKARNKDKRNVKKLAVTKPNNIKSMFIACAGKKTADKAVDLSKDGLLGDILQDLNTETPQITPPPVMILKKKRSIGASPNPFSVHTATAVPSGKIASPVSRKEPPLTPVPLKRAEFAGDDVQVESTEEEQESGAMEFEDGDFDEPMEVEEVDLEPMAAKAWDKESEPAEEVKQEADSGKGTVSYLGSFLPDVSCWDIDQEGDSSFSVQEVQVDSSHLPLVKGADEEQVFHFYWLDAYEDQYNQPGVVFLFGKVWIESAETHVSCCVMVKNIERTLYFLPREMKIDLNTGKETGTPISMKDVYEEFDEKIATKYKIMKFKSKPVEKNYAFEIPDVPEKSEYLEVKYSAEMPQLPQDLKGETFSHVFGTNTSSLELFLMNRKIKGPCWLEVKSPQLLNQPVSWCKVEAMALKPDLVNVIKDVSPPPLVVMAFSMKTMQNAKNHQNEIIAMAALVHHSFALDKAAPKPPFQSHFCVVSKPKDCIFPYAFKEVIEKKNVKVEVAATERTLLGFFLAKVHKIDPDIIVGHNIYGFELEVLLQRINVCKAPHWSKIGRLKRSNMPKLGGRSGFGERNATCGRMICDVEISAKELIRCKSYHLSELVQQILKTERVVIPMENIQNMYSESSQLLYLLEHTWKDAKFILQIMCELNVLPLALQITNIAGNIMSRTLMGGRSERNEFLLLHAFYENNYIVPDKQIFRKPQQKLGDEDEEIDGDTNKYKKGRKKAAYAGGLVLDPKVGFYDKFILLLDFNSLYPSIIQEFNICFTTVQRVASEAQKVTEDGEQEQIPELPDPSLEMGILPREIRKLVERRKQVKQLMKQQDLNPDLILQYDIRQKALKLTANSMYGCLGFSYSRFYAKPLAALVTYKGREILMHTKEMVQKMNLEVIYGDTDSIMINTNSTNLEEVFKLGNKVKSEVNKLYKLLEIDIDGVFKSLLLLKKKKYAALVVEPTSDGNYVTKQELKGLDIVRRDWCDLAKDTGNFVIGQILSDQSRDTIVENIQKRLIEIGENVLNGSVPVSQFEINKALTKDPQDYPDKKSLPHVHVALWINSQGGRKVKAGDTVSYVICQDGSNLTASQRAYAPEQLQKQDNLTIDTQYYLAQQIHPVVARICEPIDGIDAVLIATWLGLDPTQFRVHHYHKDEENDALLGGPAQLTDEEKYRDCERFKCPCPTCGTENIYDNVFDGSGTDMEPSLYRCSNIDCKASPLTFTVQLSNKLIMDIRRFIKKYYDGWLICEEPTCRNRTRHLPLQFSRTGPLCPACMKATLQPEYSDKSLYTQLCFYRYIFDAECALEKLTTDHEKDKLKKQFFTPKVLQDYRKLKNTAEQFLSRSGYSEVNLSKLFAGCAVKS
Conditions: both partners purified.

We go through 2 molecules from publication PMC10501992, “How Pol α-primase is targeted to replisomes to prime eukaryotic DNA replication” (Molecular Cell, 2023).

B1: PSF1 (human GINS subunit) (natural protein)
chain: MFCEKAMELIRELHRAPEGQLPAFNEDGLRQVLEEMKALYEQNQSDVNEAKSGGRSDLIPTIKFRHCSLLRNRRCTVAYLYDRLLRIRALRWEYGSVLPNALRFHMAAEEMEWFNNYKRSLATYMRSLGGDEGLDITQDMKPPKSLYIEVRCLKDYGEFEVDDGTSVLLKKNSQHFLPRWKCEQLIRQGVLEHILS
notes: PSF1, subunit of GINS, human; stood in the assay as a subunit of m19
For the molecule B1, in series [1], the binding result was “binds”.

B2: AND-1 (human) (natural protein)
chain: MPATRKPMRYGHTEGHTEVCFDDSGSFIVTCGSDGDVRIWEDLDDDDPKFINVGEKAYSCALKSGKLVTAVSNNTIQVHTFPEGVPDGILTRFTTNANHVVFNGDGTKIAAGSSDFLVKIVDVMDSSQQKTFRGHDAPVLSLSFDPKDIFLASASCDGSVRVWQISDQTCAISWPLLQKCNDVINAKSICRLAWQPKSGKLLAIPVEKSVKLYRRESWSHQFDLSDNFISQTLNIVTWSPCGQYLAAGSINGLIIVWNVETKDCMERVKHEKGYAICGLAWHPTCGRISYTDAEGNLGLLENVCDPSGKTSSSKVSSRVEKDYNDLFDGDDMSNAGDFLNDNAVEIPSFSKGIINDDEDDEDLMMASGRPRQRSHILEDDENSVDISMLKTGSSLLKEEEEDGQEGSIHNLPLVTSQRPFYDGPMPTPRQKPFQSGSTPLHLTHRFMVWNSIGIIRCYNDEQDNAIDVEFHDTSIHHATHLSNTLNYTIADLSHEAILLACESTDELASKLHCLHFSSWDSSKEWIIDLPQNEDIEAICLGQGWAAAATSALLLRLFTIGGVQKEVFSLAGPVVSMAGHGEQLFIVYHRGTGFDGDQCLGVQLLELGKKKKQILHGDPLPLTRKSYLAWIGFSAEGTPCYVDSEGIVRMLNRGLGNTWTPICNTREHCKGKSDHYWVVGIHENPQQLRCIPCKGSRFPPTLPRPAVAILSFKLPYCQIATEKGQMEEQFWRSVIFHNHLDYLAKNGYEYEESTKNQATKEQQELLMKMLALSCKLEREFRCVELADLMTQNAVNLAIKYASRSRKLILAQKLSELAVEKAAELTATQVEEEEEEEDFRKKLNAGYSNTATEWSQPRFRNQVEEDAEDSGEADDEEKPEIHKPGQNSFSKSTNSSDVSAKSGAVTFSSQGRVNPFKVSASSKEPAMSMNSARSTNILDNMGKSSKKSTALSRTTNNEKSPIIKPLIPKPKPKQASAASYFQKRNSQTNKTEEVKEENLKNVLSETPAICPPQNTENQRPKTGFQMWLEENRSNILSDNPDFSDEADIIKEGMIRFRVLSTEERKVWANKAKGETASEGTEAKKRKRVVDESDETENQEEKAKENLNLSKKQKPLDFSTNQKLSAFAFKQE
notes: AND-1, human (Ctf4 in budding yeast)
Broadly, the stoichiometry N is a count of units in the complex or per binding partner. With B2, the “stoichiometry N” value in series [2] was found to be 3. The binding result in series [3] and in series [4] was “binds” throughout.
